{
  "source": "patent US20230002496A1",
  "about": "(STAIDSON BEIJING BIOPHARMACEUTICALS, published 2023)",
  "data": [
    {"target": "T1, human GM-CSFRα, full length on cells (human, UniProt P15509 23-400)", "T1 sequence": "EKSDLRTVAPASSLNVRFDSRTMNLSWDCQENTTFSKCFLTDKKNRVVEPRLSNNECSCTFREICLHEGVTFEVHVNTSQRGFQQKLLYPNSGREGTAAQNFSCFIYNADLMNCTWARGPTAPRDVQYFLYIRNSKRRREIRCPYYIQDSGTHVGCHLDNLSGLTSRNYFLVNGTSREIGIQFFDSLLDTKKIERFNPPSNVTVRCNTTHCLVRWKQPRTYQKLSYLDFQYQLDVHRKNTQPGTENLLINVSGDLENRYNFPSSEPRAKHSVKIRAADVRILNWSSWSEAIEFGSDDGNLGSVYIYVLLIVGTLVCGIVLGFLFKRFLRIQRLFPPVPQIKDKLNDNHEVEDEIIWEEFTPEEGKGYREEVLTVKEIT", "experiment": "cell-based or functional assay", "units": {"IC50, TF-1 cell proliferation": "µg/mL"}, "values": [
      {"binder": "E35-scFv LD92S (scFv, V domains shown) VH: QMQLVQSGAEVKKPGASVKVSCKVSGYTLTELSIHWVRQAPGKGLEWMGGFDPEDGETIYAQKFQGRVTMTGDTSTDTAYLELSSLRSEDTALYYCATGRYTSLATTYGFDYWGQGTLVTVSS VL: EIVMTQSPATLSLSPGERATLSCRASQSVSSYLAWYQQKPGQAPRLLIYGASSRATGIPDRFSGSGSGTDFTLTISRLEPEDFAVYYCQQYSNWPYTFGQGTKLEIK", "IC50, TF-1 cell proliferation": 0.598},
      {"binder": "E35-scFv LD92K (scFv, V domains shown) VH: QMQLVQSGAEVKKPGASVKVSCKVSGYTLTELSIHWVRQAPGKGLEWMGGFDPEDGETIYAQKFQGRVTMTGDTSTDTAYLELSSLRSEDTALYYCATGRYTSLATTYGFDYWGQGTLVTVSS VL: EIVMTQSPATLSLSPGERATLSCRASQSVSSYLAWYQQKPGQAPRLLIYGASSRATGIPDRFSGSGSGTDFTLTISRLEPEDFAVYYCQQYKNWPYTFGQGTKLEIK", "IC50, TF-1 cell proliferation": 0.64},
      {"binder": "E35-scFv LD92P (scFv, V domains shown) VH: QMQLVQSGAEVKKPGASVKVSCKVSGYTLTELSIHWVRQAPGKGLEWMGGFDPEDGETIYAQKFQGRVTMTGDTSTDTAYLELSSLRSEDTALYYCATGRYTSLATTYGFDYWGQGTLVTVSS VL: EIVMTQSPATLSLSPGERATLSCRASQSVSSYLAWYQQKPGQAPRLLIYGASSRATGIPDRFSGSGSGTDFTLTISRLEPEDFAVYYCQQYPNWPYTFGQGTKLEIK", "IC50, TF-1 cell proliferation": 0.881},
      {"binder": "E35-scFv LN93D (scFv, V domains shown) VH: QMQLVQSGAEVKKPGASVKVSCKVSGYTLTELSIHWVRQAPGKGLEWMGGFDPEDGETIYAQKFQGRVTMTGDTSTDTAYLELSSLRSEDTALYYCATGRYTSLATTYGFDYWGQGTLVTVSS VL: EIVMTQSPATLSLSPGERATLSCRASQSVSSYLAWYQQKPGQAPRLLIYGASSRATGIPDRFSGSGSGTDFTLTISRLEPEDFAVYYCQQYDDWPYTFGQGTKLEIK", "IC50, TF-1 cell proliferation": 0.045},
      {"binder": "E35-scFv LN93E (scFv, V domains shown) VH: QMQLVQSGAEVKKPGASVKVSCKVSGYTLTELSIHWVRQAPGKGLEWMGGFDPEDGETIYAQKFQGRVTMTGDTSTDTAYLELSSLRSEDTALYYCATGRYTSLATTYGFDYWGQGTLVTVSS VL: EIVMTQSPATLSLSPGERATLSCRASQSVSSYLAWYQQKPGQAPRLLIYGASSRATGIPDRFSGSGSGTDFTLTISRLEPEDFAVYYCQQYDEWPYTFGQGTKLEIK", "IC50, TF-1 cell proliferation": 0.081},
      {"binder": "E35-scFv LN93T (scFv, V domains shown) VH: QMQLVQSGAEVKKPGASVKVSCKVSGYTLTELSIHWVRQAPGKGLEWMGGFDPEDGETIYAQKFQGRVTMTGDTSTDTAYLELSSLRSEDTALYYCATGRYTSLATTYGFDYWGQGTLVTVSS VL: EIVMTQSPATLSLSPGERATLSCRASQSVSSYLAWYQQKPGQAPRLLIYGASSRATGIPDRFSGSGSGTDFTLTISRLEPEDFAVYYCQQYDTWPYTFGQGTKLEIK", "IC50, TF-1 cell proliferation": 0.14},
      {"binder": "E35-scFv LN93Y (scFv, V domains shown) VH: QMQLVQSGAEVKKPGASVKVSCKVSGYTLTELSIHWVRQAPGKGLEWMGGFDPEDGETIYAQKFQGRVTMTGDTSTDTAYLELSSLRSEDTALYYCATGRYTSLATTYGFDYWGQGTLVTVSS VL: EIVMTQSPATLSLSPGERATLSCRASQSVSSYLAWYQQKPGQAPRLLIYGASSRATGIPDRFSGSGSGTDFTLTISRLEPEDFAVYYCQQYDYWPYTFGQGTKLEIK", "IC50, TF-1 cell proliferation": 0.156},
      {"binder": "E35-scFv LN93G (scFv, V domains shown) VH: QMQLVQSGAEVKKPGASVKVSCKVSGYTLTELSIHWVRQAPGKGLEWMGGFDPEDGETIYAQKFQGRVTMTGDTSTDTAYLELSSLRSEDTALYYCATGRYTSLATTYGFDYWGQGTLVTVSS VL: EIVMTQSPATLSLSPGERATLSCRASQSVSSYLAWYQQKPGQAPRLLIYGASSRATGIPDRFSGSGSGTDFTLTISRLEPEDFAVYYCQQYDGWPYTFGQGTKLEIK", "IC50, TF-1 cell proliferation": 0.205},
      {"binder": "E35-scFv HE31G (scFv, V domains shown) VH: QMQLVQSGAEVKKPGASVKVSCKVSGYTLTGLSIHWVRQAPGKGLEWMGGFDPEDGETIYAQKFQGRVTMTGDTSTDTAYLELSSLRSEDTALYYCATGRYTSLATTYGFDYWGQGTLVTVSS VL: EIVMTQSPATLSLSPGERATLSCRASQSVSSYLAWYQQKPGQAPRLLIYGASSRATGIPDRFSGSGSGTDFTLTISRLEPEDFAVYYCQQYDNWPYTFGQGTKLEIK", "IC50, TF-1 cell proliferation": 0.116},
      {"binder": "E35-scFv LN93A (scFv, V domains shown) VH: QMQLVQSGAEVKKPGASVKVSCKVSGYTLTELSIHWVRQAPGKGLEWMGGFDPEDGETIYAQKFQGRVTMTGDTSTDTAYLELSSLRSEDTALYYCATGRYTSLATTYGFDYWGQGTLVTVSS VL: EIVMTQSPATLSLSPGERATLSCRASQSVSSYLAWYQQKPGQAPRLLIYGASSRATGIPDRFSGSGSGTDFTLTISRLEPEDFAVYYCQQYDAWPYTFGQGTKLEIK", "IC50, TF-1 cell proliferation": 0.21},
      {"binder": "E35-scFv LN93M (scFv, V domains shown) VH: QMQLVQSGAEVKKPGASVKVSCKVSGYTLTELSIHWVRQAPGKGLEWMGGFDPEDGETIYAQKFQGRVTMTGDTSTDTAYLELSSLRSEDTALYYCATGRYTSLATTYGFDYWGQGTLVTVSS VL: EIVMTQSPATLSLSPGERATLSCRASQSVSSYLAWYQQKPGQAPRLLIYGASSRATGIPDRFSGSGSGTDFTLTISRLEPEDFAVYYCQQYDMWPYTFGQGTKLEIK", "IC50, TF-1 cell proliferation": 0.27},
      {"binder": "E35-scFv LN93F (scFv, V domains shown) VH: QMQLVQSGAEVKKPGASVKVSCKVSGYTLTELSIHWVRQAPGKGLEWMGGFDPEDGETIYAQKFQGRVTMTGDTSTDTAYLELSSLRSEDTALYYCATGRYTSLATTYGFDYWGQGTLVTVSS VL: EIVMTQSPATLSLSPGERATLSCRASQSVSSYLAWYQQKPGQAPRLLIYGASSRATGIPDRFSGSGSGTDFTLTISRLEPEDFAVYYCQQYDFWPYTFGQGTKLEIK", "IC50, TF-1 cell proliferation": 0.3},
      {"binder": "E35-scFv LN93S (scFv, V domains shown) VH: QMQLVQSGAEVKKPGASVKVSCKVSGYTLTELSIHWVRQAPGKGLEWMGGFDPEDGETIYAQKFQGRVTMTGDTSTDTAYLELSSLRSEDTALYYCATGRYTSLATTYGFDYWGQGTLVTVSS VL: EIVMTQSPATLSLSPGERATLSCRASQSVSSYLAWYQQKPGQAPRLLIYGASSRATGIPDRFSGSGSGTDFTLTISRLEPEDFAVYYCQQYDSWPYTFGQGTKLEIK", "IC50, TF-1 cell proliferation": 0.3},
      {"binder": "E35-scFv LN93I (scFv, V domains shown) VH: QMQLVQSGAEVKKPGASVKVSCKVSGYTLTELSIHWVRQAPGKGLEWMGGFDPEDGETIYAQKFQGRVTMTGDTSTDTAYLELSSLRSEDTALYYCATGRYTSLATTYGFDYWGQGTLVTVSS VL: EIVMTQSPATLSLSPGERATLSCRASQSVSSYLAWYQQKPGQAPRLLIYGASSRATGIPDRFSGSGSGTDFTLTISRLEPEDFAVYYCQQYDIWPYTFGQGTKLEIK", "IC50, TF-1 cell proliferation": 0.33},
      {"binder": "E35-scFv LN93L (scFv, V domains shown) VH: QMQLVQSGAEVKKPGASVKVSCKVSGYTLTELSIHWVRQAPGKGLEWMGGFDPEDGETIYAQKFQGRVTMTGDTSTDTAYLELSSLRSEDTALYYCATGRYTSLATTYGFDYWGQGTLVTVSS VL: EIVMTQSPATLSLSPGERATLSCRASQSVSSYLAWYQQKPGQAPRLLIYGASSRATGIPDRFSGSGSGTDFTLTISRLEPEDFAVYYCQQYDLWPYTFGQGTKLEIK", "IC50, TF-1 cell proliferation": 0.33},
      {"binder": "E35-scFv LN93H (scFv, V domains shown) VH: QMQLVQSGAEVKKPGASVKVSCKVSGYTLTELSIHWVRQAPGKGLEWMGGFDPEDGETIYAQKFQGRVTMTGDTSTDTAYLELSSLRSEDTALYYCATGRYTSLATTYGFDYWGQGTLVTVSS VL: EIVMTQSPATLSLSPGERATLSCRASQSVSSYLAWYQQKPGQAPRLLIYGASSRATGIPDRFSGSGSGTDFTLTISRLEPEDFAVYYCQQYDHWPYTFGQGTKLEIK", "IC50, TF-1 cell proliferation": 0.45},
      {"binder": "E35-scFv LN93R (scFv, V domains shown) VH: QMQLVQSGAEVKKPGASVKVSCKVSGYTLTELSIHWVRQAPGKGLEWMGGFDPEDGETIYAQKFQGRVTMTGDTSTDTAYLELSSLRSEDTALYYCATGRYTSLATTYGFDYWGQGTLVTVSS VL: EIVMTQSPATLSLSPGERATLSCRASQSVSSYLAWYQQKPGQAPRLLIYGASSRATGIPDRFSGSGSGTDFTLTISRLEPEDFAVYYCQQYDRWPYTFGQGTKLEIK", "IC50, TF-1 cell proliferation": 0.6},
      {"binder": "E35-scFv LN93P (scFv, V domains shown) VH: QMQLVQSGAEVKKPGASVKVSCKVSGYTLTELSIHWVRQAPGKGLEWMGGFDPEDGETIYAQKFQGRVTMTGDTSTDTAYLELSSLRSEDTALYYCATGRYTSLATTYGFDYWGQGTLVTVSS VL: EIVMTQSPATLSLSPGERATLSCRASQSVSSYLAWYQQKPGQAPRLLIYGASSRATGIPDRFSGSGSGTDFTLTISRLEPEDFAVYYCQQYDPWPYTFGQGTKLEIK", "IC50, TF-1 cell proliferation": 0.66},
      {"binder": "E35-scFv LN93K (scFv, V domains shown) VH: QMQLVQSGAEVKKPGASVKVSCKVSGYTLTELSIHWVRQAPGKGLEWMGGFDPEDGETIYAQKFQGRVTMTGDTSTDTAYLELSSLRSEDTALYYCATGRYTSLATTYGFDYWGQGTLVTVSS VL: EIVMTQSPATLSLSPGERATLSCRASQSVSSYLAWYQQKPGQAPRLLIYGASSRATGIPDRFSGSGSGTDFTLTISRLEPEDFAVYYCQQYDKWPYTFGQGTKLEIK", "IC50, TF-1 cell proliferation": 0.78},
      {"binder": "E35-scFv HE31D (scFv, V domains shown) VH: QMQLVQSGAEVKKPGASVKVSCKVSGYTLTDLSIHWVRQAPGKGLEWMGGFDPEDGETIYAQKFQGRVTMTGDTSTDTAYLELSSLRSEDTALYYCATGRYTSLATTYGFDYWGQGTLVTVSS VL: EIVMTQSPATLSLSPGERATLSCRASQSVSSYLAWYQQKPGQAPRLLIYGASSRATGIPDRFSGSGSGTDFTLTISRLEPEDFAVYYCQQYDNWPYTFGQGTKLEIK", "IC50, TF-1 cell proliferation": 0.13}
    ]}
  ]
}
